Source: PMC2563037
Non-standard residues stand in square brackets, D forms with d. No end group written: not given here. Abu = CC[C@H](N)C(=O)O

Molecular target: H-2K^b (MHC class I heavy chain with its light chain, the 'heterodimer' of the crystal structures) (mouse | not stated)
Test: circular dichroism thermal melt; far-UV CD of the H-2K^b/peptide-Aba complexes, thermostatted cuvette, 30 to 90°C

Binder | Tm of the complex
R[Abu]QIFANI | 54 °C
R[Abu]YIFANI | 64 °C
